# Measured values as given in paper PMC12143593.
# pKd: −log10 of the molar value.
# What was measured:
# RecQ helicase = RecQ helicase (UniProt P15043); assay: fluorescence polarisation; competitive: RecQ–flCTP mixture (0.65 uM RecQ, 25 nM flCTP) titrated with EcSSB constructs (tetramer concentrations); 25°C; 20 mM Tris–acetate pH 8, 50 mM K-glutamate, 10 mM Mg-acetate; competitive binding scheme
# [1] = target: EcSSB dC (construct lacking the CTP, aa 1-170) (Escherichia coli) (UniProt P0AGE0); assay: fluorescence polarisation; competitive: dC (2.5 uM tetramer) complexed with 25 nM flCTP, titrated with EcSSB constructs (tetramer concentrations); 25°C; 20 mM Tris–acetate pH 8, 50 mM K-glutamate, 10 mM Mg-acetate; competitive binding scheme
# [2] = target: EPE chimera (EcSSB with PfSSB IDL) (Escherichia coli / Plasmodium falciparum (IDL)) (UniProt P0AGE0); assay: fluorescence polarization; settings: 20 mM Tris-acetate pH 8, 50 mM K-glutamate, 10 mM Mg-acetate, 25 C; 10 nM labeled oligo, SSB concentrations as tetramers
# [3] = target: EHE chimera (EcSSB with hSSB1 IDL) (Escherichia coli / human (IDL)) (UniProt P0AGE0); assay: fluorescence polarization; settings: 20 mM Tris-acetate pH 8, 50 mM K-glutamate, 10 mM Mg-acetate, 25 C, 10 nM labeled oligo, SSB concentrations as tetramers
# [4] = target: EcSSB d1G internal_change (Escherichia coli) (UniProt P0AGE0); assay: fluorescence polarization; settings: n = 1.9 to 2.3 range; here 2.3; 20 mM Tris-acetate pH 8, 50 mM K-glutamate, 10 mM Mg-acetate, 25 C; 10 nM labeled oligo, SSB concentrations as tetramers
# [5] = target: EcSSB R116D-W136D R116D;W136D (Escherichia coli) (UniProt P0AGE0); assay: fluorescence polarization; settings: n = 2; 20 mM Tris-acetate pH 8, 50 mM K-glutamate, 10 mM Mg-acetate, 25 C; 10 nM labeled oligo, SSB concentrations as tetramers
# [6] = target: EcSSB W136D W136D (Escherichia coli) (UniProt P0AGE0); assay: fluorescence polarization; settings: n = 2; 20 mM Tris-acetate pH 8, 50 mM K-glutamate, 10 mM Mg-acetate, 25 C; 10 nM labeled oligo, SSB concentrations as tetramers
# [7] = target: EcSSB d2G internal_change (Escherichia coli) (UniProt P0AGE0); assay: fluorescence polarization; settings: n = 2.8; 20 mM Tris-acetate pH 8, 50 mM K-glutamate, 10 mM Mg-acetate, 25 C; 10 nM labeled oligo, SSB concentrations as tetramers
# [8] = target: EcSSB WT (Escherichia coli) (UniProt P0AGE0); assay: fluorescence polarization; settings: n = 1.9 tetramer per oligo; 20 mM Tris-acetate pH 8, 50 mM K-glutamate, 10 mM Mg-acetate, 25 C; 10 nM labeled oligo, SSB concentrations as tetramers
# RecQ helicase, sequence (P15043 whole entry, the tested form may be a part): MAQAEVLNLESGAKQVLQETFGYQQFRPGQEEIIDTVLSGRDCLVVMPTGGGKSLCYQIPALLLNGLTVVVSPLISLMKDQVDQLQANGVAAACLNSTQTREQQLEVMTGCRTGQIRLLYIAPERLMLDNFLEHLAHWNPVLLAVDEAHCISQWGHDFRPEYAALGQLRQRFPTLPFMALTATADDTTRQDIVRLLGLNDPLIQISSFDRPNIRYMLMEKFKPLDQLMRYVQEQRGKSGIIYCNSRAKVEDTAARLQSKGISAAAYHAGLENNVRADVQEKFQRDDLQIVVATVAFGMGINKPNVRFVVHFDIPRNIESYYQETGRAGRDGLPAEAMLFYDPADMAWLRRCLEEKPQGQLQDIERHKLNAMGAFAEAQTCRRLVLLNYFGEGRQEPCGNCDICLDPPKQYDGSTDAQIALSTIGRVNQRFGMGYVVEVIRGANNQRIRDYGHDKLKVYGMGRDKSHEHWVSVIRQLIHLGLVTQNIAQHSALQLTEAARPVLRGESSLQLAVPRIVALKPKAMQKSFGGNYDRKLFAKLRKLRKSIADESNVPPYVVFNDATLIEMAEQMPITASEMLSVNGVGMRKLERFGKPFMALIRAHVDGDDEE
substance,measurement,setting,value
"EPE chimeric construct (EcSSB OB domain, IDL of Plasmodium falciparum SSB, EcSSB CTP) (from UniProt P0AGE0;Q8I415)",pKd,RecQ helicase,> 8.00
same,pKd,[1],7.24
EcSSB GG construct (entire IDL except the CTP eliminated) (from UniProt P0AGE0 1-113) (natural protein),pKd,[1],7.01
TTTTTTTTTTTTTTTTTTTTTTTTTTTTTTTTTTTTTTTTTTTTTTTTTTTTTTTTTTTTTTTTTTTTTTTTTTTTTTT [dT79],pKd,[2],> 8.00
same,pKd,[3]; n = 2.3,> 8.00
ssDNA36,pKd,[4],7.05
same,pKd,[5],7.68
same,pKd,[6],7.80
same,pKd,[2],7.08
same,pKd,[3]; n = 2.1,7.02
same,pKd,[7],7.34
same,pKd,[8],7.49
